Earlier results as cited in article PMC6691274 (Molecular Medicine Reports, 2019).
Read-outs that look alike come from different tables or passages of the source. One block for each substance: values may come before it.

Tests used:
[1] = system: dipeptidyl-peptidase-IV (DPP-IV)
GLP-1R = target: T1, GLP-1R (Rattus norvegicus, UniProt P32301); settings: INS-1 rat insulinoma xenograft model and rat MI/R model
T1 sequence (P32301 22-463): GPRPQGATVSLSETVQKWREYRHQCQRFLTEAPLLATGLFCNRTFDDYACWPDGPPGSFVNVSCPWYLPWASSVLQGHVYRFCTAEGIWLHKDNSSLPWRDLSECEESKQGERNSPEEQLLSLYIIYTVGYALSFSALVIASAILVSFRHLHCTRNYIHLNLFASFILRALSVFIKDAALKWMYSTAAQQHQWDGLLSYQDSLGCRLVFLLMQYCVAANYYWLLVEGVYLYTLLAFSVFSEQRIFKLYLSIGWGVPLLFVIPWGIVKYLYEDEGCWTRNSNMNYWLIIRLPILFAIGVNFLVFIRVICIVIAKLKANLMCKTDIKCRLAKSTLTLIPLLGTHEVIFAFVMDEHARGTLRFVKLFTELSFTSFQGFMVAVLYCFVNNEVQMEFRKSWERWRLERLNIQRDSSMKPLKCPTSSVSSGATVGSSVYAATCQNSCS

Substance: Exendin-4: an analog of GLP-1 with 53% amino acid homology, resistant to DPP-IV
Stability towards DPP-IV [1]: resistant

Substance: GLP-1: 30-amino-acid-long gut hormone secreted from intestinal endocrine L-cells
Stability towards DPP-IV ([1]; upon being released into the blood): rapidly degraded

Affinity with GLP-1R (GLP-1R): high affinity
Substance: ^18F-4-fluorobenzamido-N-ethylamino-maleimide (FBEM)-Cys^40-exendin-4 [^18F-FBEM-Cys^40-exendin-4]
